The labels stand for the following.
B1: LINE1-full (parent)
chain: UACGUAGGUGGUUUUCCCCUGAUAGUGCUAAGGGGGCCUGGAAGUUUGGACUGGGCAGAGCUCAACACAGCGUGGCAAAGUGGCUGUGGCUAGACUGCCUCUCUGGAUUCCUCGUCACUCAGCAGGGCAUCUCUGAGAGAAAUGCC

This is an account of results in the RNAGym collection of RNA variant scans (doi:10.7554/elife.90254).

The data set covers variants of B1. Put plainly: self-cleavage, relative activity (ratio to wild type); higher = more cleavage; in vitro, sequencing; the parent is a self-cleaving ribozyme.
For the variant UACGUAGGUGGUUUUCCCCUGAUAGUGCUAAGGGGGCCUGGAAGUUUGGACUGGGCAGAGCUCAACACAGCGUGGCAAAGUGGCUGUGGCUAGACUGCCUCUCUGGAUUCCUCGUCACUCAACAGGGCAUCUCUGGGAGAAAUGCC [G122A A136G], the self-cleavage is 1.54.
Next, UACGUAGGUGGUUUUCCCCUGAUAGUGCUAAGGGGGCCUGGAAGUUUGGACUGGGCAGAGCUCAACACAGCGUGGCAAAGUGGCUGUGGCUAGACUGCCUCUCUGGAUUCCUCGUCACUCACCAGGGCAUCUCUGAGAGCAAUGCC [G122C A140C]: 1.71; UACGUAGGUGGUUUUCCCCUGAUAGUGCUAAGGGGGCCUGGAAGUUUGGACUGGGCAGAGCUCAACACAGCGUGGCAAAGUGGCUGUGGCUAGACUGCCUCUCUGGAUUCCUCGUCACUCUGCAGGGCAUCCCUGAGAGAAAUGCC [A121U U132C]: 1.36.
Take UACGUAGGUGGUUUUCCCCUGAUAGUGCUAAGGGGGCCUGGAAGUUUGGACUGGGCAGAGCUCAACACAGCGUGGCAAAGUGGCUGUGGCUAGACUGCCUCUCUGGAUUCCUCGUCACUCUGCAGGACAUCUCUGAGAGAAAUGCC [A121U G127A]: the self-cleavage amounted to 0.76.
Turning to UACGUAGGUGGUUUUCCCCUGAUAGUGCUAAGGGGGCCUGGAAGUUUGGACUGGGCAGAGCUCAACACAGCGUGGCAAAGUGGCUGUGGCUAGACUGCCUCUCUGGAUUCCUCGUCACUCUGCAGGGCACCUCUGAGAGAAAUGCC [A121U U130C], the self-cleavage was 1.7.
In the case of UACGUAGGUGGUUUUCCCCUGAUAGUGCUAAGGGGGCCUGGAAGUUUGGACUGGGCAGAGCUCAACACAGCGUGGCAAAGUGGCUGUGGCUAGACUGCCUCUCUGGAUUCCUCGUCACUCUGCAGUGCAUCUCUGAGAGAAAUGCC [A121U G126U] it was 1.5; in that of UACGUAGGUGGUUUUCCCCUGAUAGUGCUAAGGGGGCCUGGAAGUUUGGACUGGGCAGAGCUCAACACAGCGUGGCAAAGUGGCUGUGGCUAGACUGCCUCUCUGGAUUCCUCGUCACUCAUCAGGGCAUCUCUGUGAGAAAUGCC [G122U A136U], 1.31.
Consider UACGUAGGUGGUUUUCCCCUGAUAGUGCUAAGGGGGCCUGGAAGUUUGGACUGGGCAGAGCUCAACACAGCGUGGCAAAGUGGCUGUGGCUAGACUGCCUCUCUGGAUUCCUCGUCACUCAGAAGGGCUUCUCUGAGAGAAAUGCC [C123A A129U], for which the self-cleavage was 1.31.
For UACGUAGGUGGUUUUCCCCUGAUAGUGCUAAGGGGGCCUGGAAGUUUGGACUGGGCAGAGCUCAACACAGCGUGGCAAAGUGGCUGUGGCUAGACUGCCUCUCUGGAUUCCUCGUCACUCAACAGGGCAUCUCUGAUAGAAAUGCC [G122A G137U], the self-cleavage turned out to be 1.23.
In the case of UACGUAGGUGGUUUUCCCCUGAUAGUGCUAAGGGGGCCUGGAAGUUUGGACUGGGCAGAGCUCAACACAGCGUGGCAAAGUGGCUGUGGCUAGACUGCCUCUCUGGAUUCCUCGUCACUCGGCAGGGCAUCUCAGAGAGAAAUGCC [A121G U134A] it was 1.32.
Consider UACGUAGGUGGUUUUCCCCUGAUAGUGCUAAGGGGGCCUGGAAGUUUGGACUGGGCAGAGCUCAACACAGCGUGGCAAAGUGGCUGUGGCUAGACUGCCUCUCUGGAUUCCUCGUCACUCGGCAGGGCAUCUCUAAGAGAAAUGCC [A121G G135A], for which the self-cleavage came out at 2.36.
Next, UACGUAGGUGGUUUUCCCCUGAUAGUGCUAAGGGGGCCUGGAAGUUUGGACUGGGCAGAGCUCAACACAGCGUGGCAAAGUGGCUGUGGCUAGACUGCCUCUCUGGAUUCCUCGUCACUCAUCAGGGCAUCUCUGAGAGAAAUGCC [G122U]: 1.3.
Next, UACGUAGGUGGUUUUCCCCUGAUAGUGCUAAGGGGGCCUGGAAGUUUGGACUGGGCAGAGCUCAACACAGCGUGGCAAAGUGGCUGUGGCUAGACUGCCUCUCUGGAUUCCUCGUCACUCACCAGGGCAUCUCUGAGAGAAAUGCC [G122C]: 1.5; UACGUAGGUGGUUUUCCCCUGAUAGUGCUAAGGGGGCCUGGAAGUUUGGACUGGGCAGAGCUCAACACAGCGUGGCAAAGUGGCUGUGGCUAGACUGCCUCUCUGGAUUCCUCGUCACUCAACAGGGCAUCUCUGAGAGAAAUGCC [G122A]: 1.13; UACGUAGGUGGUUUUCCCCUGAUAGUGCUAAGGGGGCCUGGAAGUUUGGACUGGGCAGAGCUCAACACAGCGUGGCAAAGUGGCUGUGGCUAGACUGCCUCUCUGGAUUCCUCGUCACUCUGCAGGGCAUCUCUGAGAGAAAUACC [A121U G144A]: 1.86.
In the case of UACGUAGGUGGUUUUCCCCUGAUAGUGCUAAGGGGGCCUGGAAGUUUGGACUGGGCAGAGCUCAACACAGCGUGGCAAAGUGGCUGUGGCUAGACUGCCUCUCUGGAUUCCUCGUCACUCUGCAGGGCGUCUCUGAGAGAAAUGCC [A121U A129G] it was 1.77; in that of UACGUAGGUGGUUUUCCCCUGAUAGUGCUAAGGGGGCCUGGAAGUUUGGACUGGGCAGAGCUCAACACAGCGUGGCAAAGUGGCUGUGGCUAGACUGCCUCUCUGGAUUCCUCGUCACUCUGCAGGGCAUCUCUGAGAGAAAUGCU [A121U C146U], 1.73; in that of UACGUAGGUGGUUUUCCCCUGAUAGUGCUAAGGGGGCCUGGAAGUUUGGACUGGGCAGAGCUCAACACAGCGUGGCAAAGUGGCUGUGGCUAGACUGCCUCUCUGGAUUCCUCGUCACUCGGCAGGGCAUCUCUGAGAGAAACGCC [A121G U143C], 1.69.
With UACGUAGGUGGUUUUCCCCUGAUAGUGCUAAGGGGGCCUGGAAGUUUGGACUGGGCAGAGCUCAACACAGCGUGGCAAAGUGGCUGUGGCUAGACUGCCUCUCUGGAUUCCUCGUCACUCUGCAGGGCAUCUUUGAGAGAAAUGCC [A121U C133U], the self-cleavage amounted to 1.8.
Next, UACGUAGGUGGUUUUCCCCUGAUAGUGCUAAGGGGGCCUGGAAGUUUGGACUGGGCAGAGCUCAACACAGCGUGGCAAAGUGGCUGUGGCUAGACUGCCUCUCUGGAUUCCUCGUCACUCUGCAGGGCAUCUCUGGGAGAAAUGCC [A121U A136G]: 1.47; UACGUAGGUGGUUUUCCCCUGAUAGUGCUAAGGGGGCCUGGAAGUUUGGACUGGGCAGAGCUCAACACAGCGUGGCAAAGUGGCUGUGGCUAGACUGCCUCUCUGGAUUCCUCGUCACUCUGCAGGGCAUCUCUGUGAGAAAUGCC [A121U A136U]: 1.07; UACGUAGGUGGUUUUCCCCUGAUAGUGCUAAGGGGGCCUGGAAGUUUGGACUGGGCAGAGCUCAACACAGCGUGGCAAAGUGGCUGUGGCUAGACUGCCUCUCUGGAUUCCUCGUCACUCUGCGGGGCAUCUCUGAGAGAAAUGCC [A121U A124G]: 1.31.
In the case of UACGUAGGUGGUUUUCCCCUGAUAGUGCUAAGGGGGCCUGGAAGUUUGGACUGGGCAGAGCUCAACACAGCGUGGCAAAGUGGCUGUGGCUAGACUGCCUCUCUGGAUUCCUCGUCACUCUGCUGGGCAUCUCUGAGAGAAAUGCC [A121U A124U] it was 1.54; in that of UACGUAGGUGGUUUUCCCCUGAUAGUGCUAAGGGGGCCUGGAAGUUUGGACUGGGCAGAGCUCAACACAGCGUGGCAAAGUGGCUGUGGCUAGACUGCCUCUCUGGAUUCCUCGUCACUCGGCAUGGCAUCUCUGAGAGAAAUGCC [A121G G125U], 1.8.
In the case of UACGUAGGUGGUUUUCCCCUGAUAGUGCUAAGGGGGCCUGGAAGUUUGGACUGGGCAGAGCUCAACACAGCGUGGCAAAGUGGCUGUGGCUAGACUGCCUCUCUGGAUUCCUCGUCACUCAUCAGGGCAUCUCUGAGAGAAGUGCC [G122U A142G] it was 1.52.
In the case of UACGUAGGUGGUUUUCCCCUGAUAGUGCUAAGGGGGCCUGGAAGUUUGGACUGGGCAGAGCUCAACACAGCGUGGCAAAGUGGCUGUGGCUAGACUGCCUCUCUGGAUUCCUCGUCACUCGGCAGGGCAUCUCUGAGAGAUAUGCC [A121G A141U], the self-cleavage stood at 1.77.
In the case of UACGUAGGUGGUUUUCCCCUGAUAGUGCUAAGGGGGCCUGGAAGUUUGGACUGGGCAGAGCUCAACACAGCGUGGCAAAGUGGCUGUGGCUAGACUGCCUCUCUGGAUUCCUCGUCACUCGGUAGGGCAUCUCUGAGAGAAAUGCC [A121G C123U] it was 1.07; in that of UACGUAGGUGGUUUUCCCCUGAUAGUGCUAAGGGGGCCUGGAAGUUUGGACUGGGCAGAGCUCAACACAGCGUGGCAAAGUGGCUGUGGCUAGACUGCCUCUCUGGAUUCCUCGUCACUCGGCAGGGCAUCUCUGAGAAAAAUGCC [A121G G139A], 1.06; in that of UACGUAGGUGGUUUUCCCCUGAUAGUGCUAAGGGGGCCUGGAAGUUUGGACUGGGCAGAGCUCAACACAGCGUGGCAAAGUGGCUGUGGCUAGACUGCCUCUCUGGAUUCCUCGUCACUCGGCAGGGCAUCUCUGAGAGCAAUGCC [A121G A140C], 1.93.
In the case of UACGUAGGUGGUUUUCCCCUGAUAGUGCUAAGGGGGCCUGGAAGUUUGGACUGGGCAGAGCUCAACACAGCGUGGCAAAGUGGCUGUGGCUAGACUGCCUCUCUGGAUUCCUCGUCACUCGGCAGGGCAUCUCUGAGAGUAAUGCC [A121G A140U] it was 1.45; in that of UACGUAGGUGGUUUUCCCCUGAUAGUGCUAAGGGGGCCUGGAAGUUUGGACUGGGCAGAGCUCAACACAGCGUGGCAAAGUGGCUGUGGCUAGACUGCCUCUCUGGAUUCCUCGUCACUCUGCAGGGCAUCUCUGAAAGAAAUGCC [A121U G137A], 2.09; in that of UACGUAGGUGGUUUUCCCCUGAUAGUGCUAAGGGGGCCUGGAAGUUUGGACUGGGCAGAGCUCAACACAGCGUGGCAAAGUGGCUGUGGCUAGACUGCCUCUCUGGAUUCCUCGUCACUCAACGGGGCAUCUCUGAGAGAAAUGCC [G122A A124G], 0.62.
As for UACGUAGGUGGUUUUCCCCUGAUAGUGCUAAGGGGGCCUGGAAGUUUGGACUGGGCAGAGCUCAACACAGCGUGGCAAAGUGGCUGUGGCUAGACUGCCUCUCUGGAUUCCUCGUCACUCUGCAUGGCAUCUCUGAGAGAAAUGCC [A121U G125U], the self-cleavage worked out at 1.4.
On to UACGUAGGUGGUUUUCCCCUGAUAGUGCUAAGGGGGCCUGGAAGUUUGGACUGGGCAGAGCUCAACACAGCGUGGCAAAGUGGCUGUGGCUAGACUGCCUCUCUGGAUUCCUCGUCACUCACCAGGGCAUCUCUGAGAGAAACGCC [G122C U143C], for which the self-cleavage turned out to be 1.57.
In the case of UACGUAGGUGGUUUUCCCCUGAUAGUGCUAAGGGGGCCUGGAAGUUUGGACUGGGCAGAGCUCAACACAGCGUGGCAAAGUGGCUGUGGCUAGACUGCCUCUCUGGAUUCCUCGUCACUCUGCAGGGCAUCUCUGAGAGAAACGCC [A121U U143C], the self-cleavage was 1.59.
As to UACGUAGGUGGUUUUCCCCUGAUAGUGCUAAGGGGGCCUGGAAGUUUGGACUGGGCAGAGCUCAACACAGCGUGGCAAAGUGGCUGUGGCUAGACUGCCUCUCUGGAUUCCUCGUCACUCGGCAGGGCAUCACUGAGAGAAAUGCC [A121G U132A], the self-cleavage came out at 1.86.
Next, UACGUAGGUGGUUUUCCCCUGAUAGUGCUAAGGGGGCCUGGAAGUUUGGACUGGGCAGAGCUCAACACAGCGUGGCAAAGUGGCUGUGGCUAGACUGCCUCUCUGGAUUCCUCGUCACUCUGCAGGGCAUCUCUGAGAGCAAUGCC [A121U A140C]: 1.09; UACGUAGGUGGUUUUCCCCUGAUAGUGCUAAGGGGGCCUGGAAGUUUGGACUGGGCAGAGCUCAACACAGCGUGGCAAAGUGGCUGUGGCUAGACUGCCUCUCUGGAUUCCUCGUCACUCUGCAGGGCAUCUCUGAGAGGAAUGCC [A121U A140G]: 1.18; UACGUAGGUGGUUUUCCCCUGAUAGUGCUAAGGGGGCCUGGAAGUUUGGACUGGGCAGAGCUCAACACAGCGUGGCAAAGUGGCUGUGGCUAGACUGCCUCUCUGGAUUCCUCGUCACUCAACAGGGCGUCUCUGAGAGAAAUGCC [G122A A129G]: 1.19.
